Data published in publication PMC9482650, “Quantitative fragmentomics allow affinity mapping of interactomes” (Nature Communications, 2022).
Values belong to the binder of their own block, whether it stands above or below them.

What was measured:
Assay in all cases: holdup assay
Parameters in all cases: key: below the threshold = too weak to quantify, mostly under pKd 3.1 to 4
[1] = target: T1, SNTG1, Q9NSN8
T1 sequence (Q9NSN8 52-150, limits assumed, looked up): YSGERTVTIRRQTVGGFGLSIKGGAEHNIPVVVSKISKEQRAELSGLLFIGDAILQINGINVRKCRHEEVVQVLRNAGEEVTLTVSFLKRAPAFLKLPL

[2] = target: TJP1_3, Q07157
[3] = target: NHERF2_2, Q15599
[4] = target: CASK, O14936
[5] = target: T2, APBA1_1, Q02410
T2 sequence (Q02410 651-752, limits assumed, looked up): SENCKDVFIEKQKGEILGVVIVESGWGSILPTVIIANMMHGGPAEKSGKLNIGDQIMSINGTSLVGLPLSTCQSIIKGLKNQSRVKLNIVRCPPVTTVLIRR

[6] = target: T3, DFNB31_1, Q9P202
T3 sequence (Q9P202 135-233, limits assumed, looked up): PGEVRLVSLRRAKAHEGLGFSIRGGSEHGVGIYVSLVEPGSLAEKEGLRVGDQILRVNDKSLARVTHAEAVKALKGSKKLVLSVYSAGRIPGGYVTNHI

[7] = target: T4, MPP7, Q5T2T1
T4 sequence (Q5T2T1 134-230, limits assumed, looked up): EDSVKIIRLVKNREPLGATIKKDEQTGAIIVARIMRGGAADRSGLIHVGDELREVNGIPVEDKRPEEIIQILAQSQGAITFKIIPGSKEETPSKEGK

[8] = target: FRMPD2_3, Q68DX3
[9] = target: ARHGEF12, Q9NZN5-2
[10] = target: HTRA1, Q92743
[11] = target: MAGI1_1, Q96QZ7
[12] = target: Inadl_3, Q8NI35
[13] = target: PDLIM1, O00151
[14] = target: Inadl_4, Q8NI35
[15] = target: T5, GRIP1_4, Q9Y3R0
T5 sequence (Q9Y3R0 467-571, limits assumed, looked up): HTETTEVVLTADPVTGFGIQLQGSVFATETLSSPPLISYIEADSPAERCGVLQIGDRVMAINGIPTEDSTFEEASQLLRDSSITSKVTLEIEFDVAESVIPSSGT

[16] = target: MAGI3_2, Q5TCQ9
[17] = target: T6, PTPN13_1, Q12923
T6 sequence (Q12923 1088-1188, limits assumed, looked up): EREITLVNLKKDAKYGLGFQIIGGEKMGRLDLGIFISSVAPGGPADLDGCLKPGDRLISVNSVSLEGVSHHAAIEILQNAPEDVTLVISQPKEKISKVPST

[18] = target: T7, MPDZ_12, O75970
T7 sequence (O75970 1857-1958, limits assumed, looked up): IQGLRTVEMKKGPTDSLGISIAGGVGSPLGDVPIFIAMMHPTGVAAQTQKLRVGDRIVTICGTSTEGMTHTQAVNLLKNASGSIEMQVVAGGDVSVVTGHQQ

[19] = target: GRID2IP_2, A4D2P6
[20] = target: GRIP2_4, Q9C0E4
[21] = target: T8, MPDZ_10, O75970
T8 sequence (O75970 1624-1722, limits assumed, looked up): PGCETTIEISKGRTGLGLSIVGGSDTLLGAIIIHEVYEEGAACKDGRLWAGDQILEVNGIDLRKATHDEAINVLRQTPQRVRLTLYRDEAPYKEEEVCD

[22] = target: T9, LIN7C, Q9NUP9
T9 sequence (Q9NUP9 88-185, limits assumed, looked up): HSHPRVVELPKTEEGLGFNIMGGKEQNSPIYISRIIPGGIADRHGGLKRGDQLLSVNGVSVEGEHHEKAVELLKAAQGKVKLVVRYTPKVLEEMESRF

[23] = target: Inadl_5, Q8NI35
[24] = target: T10, HTRA3, P83110
T10 sequence (P83110 354-453, limits assumed, looked up): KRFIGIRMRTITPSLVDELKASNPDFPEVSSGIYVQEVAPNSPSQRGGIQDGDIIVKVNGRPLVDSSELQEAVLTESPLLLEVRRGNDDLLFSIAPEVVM

[25] = target: Inadl_6, Q8NI35
[26] = target: T11, PARD3B_1, Q8TEW8
T11 sequence (Q8TEW8 196-299, limits assumed, looked up): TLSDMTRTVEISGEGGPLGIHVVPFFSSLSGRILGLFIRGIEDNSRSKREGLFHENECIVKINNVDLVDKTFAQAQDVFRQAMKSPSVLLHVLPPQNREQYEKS

[27] = target: DLG1_3, Q12959
[28] = plain residues with an end cap or a label only (N-terminal biotin on a linker: ttds)
[29] = plain residues with an end cap or a label only (N-terminal biotin on a linker: ado-ado)
[30] = plain residues with an end cap or a label only (N-terminal biotin on a linker: ahx)

Chain of DLG1_3, Q12959 (Q12959 457-571): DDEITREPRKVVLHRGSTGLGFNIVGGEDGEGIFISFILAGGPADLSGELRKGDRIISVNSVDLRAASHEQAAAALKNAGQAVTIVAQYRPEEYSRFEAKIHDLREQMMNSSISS
Chain of CASK, O14936 (O14936 487-570): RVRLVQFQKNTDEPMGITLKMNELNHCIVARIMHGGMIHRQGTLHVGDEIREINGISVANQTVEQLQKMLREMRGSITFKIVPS
Chain of MAGI3_2, Q5TCQ9 (Q5TCQ9 398-503): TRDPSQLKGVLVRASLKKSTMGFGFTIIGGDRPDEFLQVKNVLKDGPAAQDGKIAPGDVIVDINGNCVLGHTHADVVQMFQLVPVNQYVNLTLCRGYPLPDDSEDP
Chain of ARHGEF12, Q9NZN5-2 (Q9NZN5 other isoform, or with tags, fused parts or gaps): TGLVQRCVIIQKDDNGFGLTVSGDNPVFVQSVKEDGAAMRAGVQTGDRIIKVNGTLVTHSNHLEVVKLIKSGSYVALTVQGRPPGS
Chain of HTRA1, Q92743 (Q92743 360-477): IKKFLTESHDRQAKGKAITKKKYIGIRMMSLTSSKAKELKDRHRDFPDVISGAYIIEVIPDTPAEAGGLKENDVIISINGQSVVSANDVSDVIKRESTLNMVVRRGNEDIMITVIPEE
Chain of PDLIM1, O00151 (O00151 1-87): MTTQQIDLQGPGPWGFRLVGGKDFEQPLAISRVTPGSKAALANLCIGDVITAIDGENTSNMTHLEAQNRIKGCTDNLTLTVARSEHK
Chain of GRIP2_4, Q9C0E4 (Q9C0E4 446-548): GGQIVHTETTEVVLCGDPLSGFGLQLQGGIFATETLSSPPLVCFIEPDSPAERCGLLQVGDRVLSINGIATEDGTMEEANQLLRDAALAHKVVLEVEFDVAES
Chain of Inadl_4, Q8NI35 (Q8NI35 547-651): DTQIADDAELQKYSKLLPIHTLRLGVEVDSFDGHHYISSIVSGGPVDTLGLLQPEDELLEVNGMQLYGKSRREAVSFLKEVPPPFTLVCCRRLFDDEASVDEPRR
Chain of Inadl_3, Q8NI35 (Q8NI35 359-469): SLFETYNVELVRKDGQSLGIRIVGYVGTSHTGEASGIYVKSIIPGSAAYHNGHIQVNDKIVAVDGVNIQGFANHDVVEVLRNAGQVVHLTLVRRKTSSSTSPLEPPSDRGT
Chain of TJP1_3, Q07157 (Q07157 416-512): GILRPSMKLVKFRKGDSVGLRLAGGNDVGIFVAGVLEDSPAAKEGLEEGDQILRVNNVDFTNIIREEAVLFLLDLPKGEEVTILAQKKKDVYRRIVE
Chain of Inadl_6, Q8NI35 (Q8NI35 1058-1167): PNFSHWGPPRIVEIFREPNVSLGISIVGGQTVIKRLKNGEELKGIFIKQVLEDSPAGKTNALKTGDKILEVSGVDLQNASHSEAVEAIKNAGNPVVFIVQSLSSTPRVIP
Chain of Inadl_5, Q8NI35 (Q8NI35 673-780): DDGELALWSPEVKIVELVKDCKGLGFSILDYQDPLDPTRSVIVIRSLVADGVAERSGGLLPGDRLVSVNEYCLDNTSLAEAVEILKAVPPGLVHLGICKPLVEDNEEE
Chain of GRID2IP_2, A4D2P6 (A4D2P6 272-370): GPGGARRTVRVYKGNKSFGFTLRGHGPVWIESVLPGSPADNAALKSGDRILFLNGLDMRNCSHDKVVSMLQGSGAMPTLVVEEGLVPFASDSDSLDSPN
Chain of FRMPD2_3, Q68DX3 (Q68DX3 1073-1166): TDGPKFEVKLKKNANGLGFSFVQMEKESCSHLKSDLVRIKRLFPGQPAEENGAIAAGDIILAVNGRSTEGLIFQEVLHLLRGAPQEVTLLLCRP
Chain of NHERF2_2, Q15599 (Q15599 142-238): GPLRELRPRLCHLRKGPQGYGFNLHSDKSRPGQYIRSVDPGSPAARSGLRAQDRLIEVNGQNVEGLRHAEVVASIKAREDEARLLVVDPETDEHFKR
Chain of MAGI1_1, Q96QZ7 (Q96QZ7 1-106): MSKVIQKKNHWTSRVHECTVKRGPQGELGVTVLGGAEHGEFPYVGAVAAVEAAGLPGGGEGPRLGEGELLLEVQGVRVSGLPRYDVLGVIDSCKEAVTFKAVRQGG

B2: CBY2, Q8NA61 (peptide)
chain: SQDPKKPSRV
- pKd [1, 29]: below the threshold
- pKd [2, 29]: below the threshold
- pKd [3, 29]: below the threshold
- pKd [4, 29]: below the threshold
- pKd [5, 29]: below the threshold
- pKd [6, 29]: below the threshold
- pKd [7, 29]: below the threshold
- pKd [8, 29]: below the threshold
- pKd [9, 29]: below the threshold
- pKd [10, 29]: below the threshold
- pKd [11, 29]: 3.49
- pKd [12, 29]: below the threshold
- pKd [13, 29]: below the threshold
- pKd [14, 29]: below the threshold
- pKd [15, 29]: below the threshold
- pKd [16, 29]: 4.44
- pKd [17, 29]: below the threshold
- pKd [18, 29]: below the threshold
- pKd [19, 29]: below the threshold
- pKd [20, 29]: below the threshold
- pKd [21, 29]: 3.7
- pKd [22, 29]: below the threshold
- pKd [23, 29]: below the threshold
- pKd [24, 29]: below the threshold
- pKd [25, 29]: below the threshold
- pKd [26, 29]: below the threshold
- pKd [27, 29]: below the threshold

B4: MTMR1, Q13613 (peptide)
chain: HSATSVHTSV
- pKd [1, 30]: below the threshold
- pKd [2, 30]: below the threshold
- pKd [3, 30]: below the threshold
- pKd [4, 30]: below the threshold
- pKd [5, 30]: below the threshold
- pKd [6, 30]: 3.66
- pKd [7, 30]: below the threshold
- pKd [8, 30]: below the threshold
- pKd [9, 30]: below the threshold
- pKd [10, 30]: 3.51
- pKd [11, 30]: below the threshold
- pKd [12, 30]: 3.7
- pKd [13, 30]: 3.72
- pKd [14, 30]: below the threshold
- pKd [15, 30]: below the threshold
- pKd [16, 30]: 3.59
- pKd [17, 30]: below the threshold
- pKd [18, 30]: below the threshold
- pKd [19, 30]: below the threshold
- pKd [20, 30]: below the threshold
- pKd [21, 30]: 3.81
- pKd [22, 30]: below the threshold
- pKd [23, 30]: below the threshold
- pKd [24, 30]: below the threshold
- pKd [25, 30]: below the threshold
- pKd [26, 30]: below the threshold
- pKd [27, 30]: 3.56

Now from value to binder:

- pKd [1, 28]: 3.49
- pKd [2, 28]: below the threshold
- pKd [3, 28]: 5.39
- pKd [4, 28]: below the threshold
- pKd [5, 28]: below the threshold
- pKd [6, 28]: below the threshold
- pKd [7, 28]: below the threshold
- pKd [8, 28]: below the threshold
- pKd [9, 28]: below the threshold
- pKd [10, 28]: 3.73
- pKd [11, 28]: below the threshold
- pKd [12, 28]: below the threshold
- pKd [13, 28]: 3.52
- pKd [14, 28]: below the threshold
- pKd [15, 28]: below the threshold
- pKd [16, 28]: below the threshold
- pKd [17, 28]: below the threshold
- pKd [18, 28]: below the threshold
- pKd [19, 28]: below the threshold
- pKd [20, 28]: below the threshold
- pKd [21, 28]: below the threshold
- pKd [22, 28]: below the threshold
- pKd [23, 28]: below the threshold
- pKd [24, 28]: below the threshold
- pKd [25, 28]: below the threshold
- pKd [26, 28]: below the threshold
- pKd [27, 28]: below the threshold
B1: PODXL, O00592 (peptide)
chain: DLDEEEDTHL

- pKd [1, 29]: 5.43
- pKd [2, 29]: below the threshold
- pKd [3, 29]: 4.12
- pKd [4, 29]: below the threshold
- pKd [5, 29]: below the threshold
- pKd [6, 29]: 4.79
- pKd [7, 29]: below the threshold
- pKd [8, 29]: 3.56
- pKd [9, 29]: 3.49
- pKd [10, 29]: 3.65
- pKd [11, 29]: below the threshold
- pKd [12, 29]: 3.53
- pKd [13, 29]: below the threshold
- pKd [14, 29]: below the threshold
- pKd [15, 29]: below the threshold
- pKd [16, 29]: 4.56
- pKd [17, 29]: below the threshold
- pKd [18, 29]: below the threshold
- pKd [19, 29]: 3.79
- pKd [20, 29]: below the threshold
- pKd [21, 29]: below the threshold
- pKd [22, 29]: 4.57
- pKd [23, 29]: below the threshold
- pKd [24, 29]: below the threshold
- pKd [25, 29]: 4.1
- pKd [26, 29]: below the threshold
- pKd [27, 29]: 3.68
B3: DGKI, O75912 (peptide)
chain: IGHEDLETAV
